Substrate in the data set: N=C(N)NCCCC(NC(=O)c1ccccc1)C(=O)Nc1ccc([N+](=O)[O-])cc1
The experiment in a line: purified protein. The conditions noted are these: 50 mM Tris-HCl, pH 8.0, 37 °C (amidase assay).

The source of these data is PMC4794721, “Improved Production of Active Streptomyces griseus Trypsin with a Novel Auto-Catalyzed Strategy” (Scientific Reports, 2016).

B1: SGT (Streptomyces griseus trypsin) (Streptomyces griseus) (protein)
chain: VVGGTRAAQGEFPFMVRLSMGCGGALYAQDIVLTAAHCVSGSGNNTSITATGGVVDLQSSSAVKVRSTKVLQAPGYNGTGKDWALIKLAQPINQPTLKIATTTAYNQGTFTVAGWGANREGGSQQRYLLKANVPFVSDAACRSAYGNELVANEEICAGYPDTGGVDTCQGDSGGPMFRKDNADEWIQVGIVSWGYGCARPGYPGVYTEVSTFASAIASAARTL
In the case of B1, the Km is reported as 7.88 ± 0.16 × 10^−2 mM.
